Consider one molecule from patent US20230348603A1 (VERSEAU THERAPEUTICS, published 2023).

Test [1] addresses T1, Human VSIG4-L-Fc (human).
T1 construct: also called hVSIG4-L-Fc; hVSIG4-L
Description: ligand competition ELISA (FJB), blocked ligand C3b. In general terms: An ELISA detects its analyte on a solid surface through an enzyme-linked reagent.

Test [2] deals with T1, Human VSIG4-L-Fc. Description: BLI binning on hVSIG4-L-Fc, competitor 14C05 first.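 Note: normalized to binding of second antibody without first competitor antibody.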
The target in test [3] is T1, Human VSIG4-L-Fc. The test can be described thus: BLI binning on hVSIG4-L-Fc, competitor 13H11 first.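 Note: normalized to binding of second antibody without first competitor antibody.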
Test [4] concerns the target T1, Human VSIG4-L-Fc. Description: BLI binning on hVSIG4-L-Fc, competitor 15C04 first.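 Note: normalized to binding of second antibody without first competitor antibody.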
The target of test [5] is T2, Human VSIG4-L-CHO (human VSIG4 long isoform on CHO-K1 cells) (human, UniProt Q9Y279 20-399).
T2 construct: also called hVSIG4-L (flow cytometry)
T2 sequence: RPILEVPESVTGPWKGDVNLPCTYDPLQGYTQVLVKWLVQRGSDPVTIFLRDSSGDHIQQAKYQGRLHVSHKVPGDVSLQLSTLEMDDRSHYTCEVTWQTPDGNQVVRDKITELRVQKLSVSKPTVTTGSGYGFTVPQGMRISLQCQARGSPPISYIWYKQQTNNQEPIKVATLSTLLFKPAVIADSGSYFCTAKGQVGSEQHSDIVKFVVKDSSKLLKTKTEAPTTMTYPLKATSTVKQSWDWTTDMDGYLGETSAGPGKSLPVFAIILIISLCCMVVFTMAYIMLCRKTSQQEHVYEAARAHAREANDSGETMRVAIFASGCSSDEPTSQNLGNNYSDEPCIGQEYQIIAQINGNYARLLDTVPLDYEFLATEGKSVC
The test can be described thus: flow cytometry, CHO-K1 cells expressing hVSIG4-L. (In flow cytometry, cells or beads pass a laser one at a time.)

Test [6] addresses T1, Human VSIG4-L-Fc. Description: BLI binning on hVSIG4-L-Fc, competitor 16E03 first.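 Note: normalized to binding of second antibody without first competitor antibody.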
Test [7] has as its target T1, Human VSIG4-L-Fc. The test can be described thus: BLI binning on hVSIG4-L-Fc, competitor 14D12 first.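 Note: normalized to binding of second antibody without first competitor antibody.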
The target in test [8] is T2, Human VSIG4-L-CHO (human VSIG4 long …). The test can be described thus: flow cytometry (FJB), 200 nM mAb, huVSIG4-L CHO-K1 cells.
Test [9] addresses T1, Human VSIG4-L-Fc. The test can be described thus: ELISA, IgG 50 nM on coated antigen.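 Note: Mouse-human chimeric IgG4 antibodies incubated 1 h on plate-coated VSIG4 proteins, bound IgG detected with HRP-labelled anti-human IgG, irrelevant antibody and protein as specificity controls.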
The target in test [10] is T3, Cynomolgus Monkey VSIG4-L-His (cynomolgus monkey).
T3 construct: ECD with His tag; also called cyVSIG4-L; cyno VSIG4-L-His
T3 chain: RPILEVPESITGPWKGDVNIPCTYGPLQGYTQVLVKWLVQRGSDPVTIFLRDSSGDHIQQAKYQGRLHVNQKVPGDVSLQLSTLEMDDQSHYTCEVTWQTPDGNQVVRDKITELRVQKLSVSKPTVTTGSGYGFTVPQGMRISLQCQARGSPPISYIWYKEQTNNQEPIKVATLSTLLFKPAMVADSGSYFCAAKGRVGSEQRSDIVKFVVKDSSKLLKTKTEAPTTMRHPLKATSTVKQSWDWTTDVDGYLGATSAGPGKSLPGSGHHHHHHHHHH
Description: ELISA, IgG 50 nM on coated antigen.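 Note: Mouse-human chimeric IgG4 antibodies incubated 1 h on plate-coated VSIG4 proteins, bound IgG detected with HRP-labelled anti-human IgG, irrelevant antibody and protein as specificity controls.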

The target of the next test is T4, Human VSIG4-S-Fc (human).
T4 construct: short isoform ECD fused to human Fc1; also called hVSIG4-S
T4 sequence (chain, as listed by the source limits assumed): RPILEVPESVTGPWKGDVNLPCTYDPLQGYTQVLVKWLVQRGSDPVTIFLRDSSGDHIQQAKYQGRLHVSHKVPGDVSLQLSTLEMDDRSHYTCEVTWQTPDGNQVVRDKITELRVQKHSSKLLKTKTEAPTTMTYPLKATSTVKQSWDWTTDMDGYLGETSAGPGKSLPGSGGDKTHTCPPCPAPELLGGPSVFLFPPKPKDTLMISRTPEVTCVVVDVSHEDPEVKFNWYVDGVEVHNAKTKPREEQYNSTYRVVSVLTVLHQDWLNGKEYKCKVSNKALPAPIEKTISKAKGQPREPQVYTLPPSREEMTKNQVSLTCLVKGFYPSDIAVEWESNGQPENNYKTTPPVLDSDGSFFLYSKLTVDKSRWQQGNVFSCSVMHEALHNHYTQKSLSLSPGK
The test can be described thus: ELISA, IgG 50 nM on coated antigen.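 Note: Mouse-human chimeric IgG4 antibodies incubated 1 h on plate-coated VSIG4 proteins, bound IgG detected with HRP-labelled anti-human IgG, irrelevant antibody and protein as specificity controls.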

In a further test the target is T5, Mouse VSIG4-His (mouse).
T5 construct: ECD with His tag; also called mVSIG4
T5 chain: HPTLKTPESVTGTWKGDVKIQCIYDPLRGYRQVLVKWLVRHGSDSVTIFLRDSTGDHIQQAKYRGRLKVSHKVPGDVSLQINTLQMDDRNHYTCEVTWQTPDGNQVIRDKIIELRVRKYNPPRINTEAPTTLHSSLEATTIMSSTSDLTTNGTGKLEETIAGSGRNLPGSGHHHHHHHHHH
The test can be described thus: ELISA, IgG 50 nM on coated antigen.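 Note: Mouse-human chimeric IgG4 antibodies incubated 1 h on plate-coated VSIG4 proteins, bound IgG detected with HRP-labelled anti-human IgG, irrelevant antibody and protein as specificity controls.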

Test [11] has as its target T3, Cynomolgus Monkey VSIG4-L-His. The test can be described thus: BLI, IgG on AHC sensor, antigen 100 nM. In general terms: BLI is a label-free optical method that tracks binding on a fibre tip over time.
Test [12] has as its target T6, Human VSIG4-L-His (human, UniProt Q9Y279 20-283).
T6 construct: long isoform ECD with His tag; also called hVSIG4-L
T6 sequence: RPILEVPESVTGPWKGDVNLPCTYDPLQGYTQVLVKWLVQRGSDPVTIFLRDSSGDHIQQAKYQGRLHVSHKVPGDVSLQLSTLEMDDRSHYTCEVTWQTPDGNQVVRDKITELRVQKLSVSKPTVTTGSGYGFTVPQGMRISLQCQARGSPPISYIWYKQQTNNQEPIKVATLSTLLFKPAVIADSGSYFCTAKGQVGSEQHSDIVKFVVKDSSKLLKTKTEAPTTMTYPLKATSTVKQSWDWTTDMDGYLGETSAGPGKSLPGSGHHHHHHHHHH
Description: BLI, IgG on AHC sensor, antigen 100 nM.

For test [13], the target named is T1, Human VSIG4-L-Fc. Description: BLI binning on hVSIG4-L-Fc, competitor 16E10 first.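 Note: normalized to binding of second antibody without first competitor antibody.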
Test [14] has as its target T1, Human VSIG4-L-Fc. The test can be described thus: BLI cross-blocking on hVSIG4-L-Fc, competitor 12A12 first.
Test [15] has as its target T1, Human VSIG4-L-Fc. The test can be described thus: BLI cross-blocking on hVSIG4-L-Fc, competitor 16G02 first.
Test [16] concerns the target T2, Human VSIG4-L-CHO (human VSIG4 long …). Description: flow cytometry (FJB), 200 nM mAb, huVSIG4-L CHO-K1 over parental CHO-K1.
Test [17] has as its target T1, Human VSIG4-L-Fc. The test can be described thus: BLI cross-blocking on hVSIG4-L-Fc, competitor 14C05 first.
Test [18] addresses T3, Cynomolgus Monkey VSIG4-L-His. Description: SPR (FJB).
For test [19], the target named is T6, Human VSIG4-L-His. The test can be described thus: SPR (FJB).
Test [20] deals with T1, Human VSIG4-L-Fc. The test can be described thus: ligand blocking of iC3b, IgG.

B1: 12A12 mouse/human chimeric IgG4 (S228P) kappa (antibody, V domains shown)
VH: QVQMKQSGAELAKPGASVKMSCKASGYTFTNYWMHWVKQRPGQGLEWIGYINPSTGYTDYNQNFKDRATLTADKSSSTAYMQLSSLTSEDSAVYYCIRGSDYYGRDYWGQGTTLTVSS
VL: DIQMTQTTSSLSASLGDRVTISCRASQDISNYLNWYQQKPDGTLKLLIYYTSRLHSGVPSRFSGSGSGTDYSLTISNLEQEDIATYFCRQGNTLPWTFGGGTKLEIKR
B1 had an IC50 with Human VSIG4-L-Fc [1] of 0.9 nM. For the same molecule, the “normalized maximum binding nm shift” value was 0.72 normalized with Human VSIG4-L-Fc [2]; 0.74 normalized with Human VSIG4-L-Fc [3]; 0.76 normalized in the test with Human VSIG4-L-Fc [4]; 0.64 normalized in the test with Human VSIG4-L-Fc [6]; 0.7 normalized in the test with Human VSIG4-L-Fc [7]; 0.62 normalized in the test with Human VSIG4-L-Fc [13]. In test [5], this molecule gave an EC50 of 4.4 nM. The “Binding (200 nM) MFI” value in test [8] was found to be 106000 MFI. The “ELISA OD450” value turned out to be 4.45 OD450 with Human VSIG4-L-Fc [9], 4.4 OD450 in test [10], 4.18 OD450 with Human VSIG4-S-Fc and 0.054 OD450 with Mouse VSIG4-His. Also, the “KD relative to parental chimera” value (in [11]; with Human VSIG4-L-His [12]) was 1 fold each time. Further, the “binding signal (nm shift)” value was 0.13 nm in the test with Human VSIG4-L-Fc [14], 0.16 nm in the test with Human VSIG4-L-Fc [15] and 0.72 nm in the test with Human VSIG4-L-Fc [17]. For the same molecule, in [16], the “Binding (200 nM) Fold-Over-Parental” value amounted to 291 fold. For the same molecule, the Kd in [18] is 6.8 nM; with Human VSIG4-L-His [19], 8.6 nM. Further, the “Percent Blocking iC3b” value in the test with Human VSIG4-L-Fc [20] worked out at 98%.

The term IC50 denotes the concentration needed to halve the response being measured. A word on the EC50: it is the concentration needed to bring the measured effect to its halfway point. What is called Kd is the constant that tells how readily two partners part at equilibrium.
